Reference: the MegaScale stability set (Tsuboyama et al. 2023)

B1: EHEE_rd2_0601 (parent)
chain: TYTYKLTDEEASRRAEDEWRNRGYDVRVRNNNGTWEVEVR

Variants of: B1
Assay: folding stability dG (cDNA display proteolysis); higher = more stable
Details: PBS, room temperature

Folding stability dG [kcal/mol] of substitutions, site by site:
V28: L 0.62 | N -0.678 | F 0.162 | I 1.44 | Y 0.207 | H -0.199 | K -0.078 | R 1.38 | M 0.531 | S 0.536 | G -0.651 | Q -0.695 | W 0.13 | D -0.612 | C 0.766 | T 0.683 | A 0.322
D25: Y 1.27 | S 1.3 | P 0.219 | L 1.48 | Q 1.64 | H 1.56 | I 1.76 | T 1.46 | V 1.52 | F 1.35 | G 0.602 | R 1.23 | E 1.82 | W 1.53 | M 1.36 | N 1.3 | K 1.16 | A 1.25
R20: T 0.945 | I 0.853 | E -0.108 | F 0.22 | W -0.078 | Q 0.446 | L 0.904 | G 0.028 | V 0.659 | M 0.619 | A 0.541 | N 0.373 | K 1.32 | Y 0.246 | H 0.444 | S 0.589
R13: E 0.263 | G 0.328 | M 0.987 | N 0.767 | W 0.841 | A 0.771 | V 0.764 | Y 0.805 | K 1.45 | Q 0.968 | I 0.934 | C 0.559 | S 0.553 | T 0.582 | H 0.979 | D 0.014 | L 1.08 | P -0.953 | F 0.619
E9: Y 1.58 | N 0.05 | L 1.14 | I 0.934 | R 0.802 | P 0.822 | K 0.834 | T 0.198 | M 0.936 | S 0.61 | V 0.885 | W 1.26 | H 0.807 | Q 1.07
E18: R 1.31 | D 1.21 | H 1.83 | G 0.757 | N 1.03 | F 2.71 | C 2.41 | L 2.04 | T 1.35 | M 2.03 | V 1.56 | I 1.74 | A 1.45 | Y 3.02 | K 1.43 | S 1.25 | Q 1.36 | W 2.44
R27: H 1.56 | Q 1.56 | L 1.68 | A 1.42 | I 2.09 | W 1.27 | N 1.36 | Y 1.52 | V 2.05 | P -0.472 | S 1.69 | T 2.03 | C 1.69 | G 0.575 | M 1.49 | E 1.6 | K 1.6 | F 1.67 | D 1.07
A11: M 1.11 | W 0.697 | I 0.447 | H 0.875 | Q 1.22 | T 1.19 | F 0.664 | K 0.673 | E 1.5 | S 1.58 | V 0.486 | R 0.546 | Y 0.624 | P -0.502 | D 1.12 | N 0.709 | L 0.971 | G 0.768
R22: L 1.46 | H 0.666 | K 1.45 | T -0.242 | Y 0.488 | S 0.439 | W 0.762 | G 0.192 | N 0.518 | Q 0.939 | D -0.181 | M 1.29 | F 0.44 | I 0.421 | C 1.03 | E 0.251 | V -0.052 | A 1.22
R14: V 1.29 | S 0.898 | N 1.04 | G 0.487 | Q 1.35 | H 1.22 | D 0.704 | L 1.33 | Y 0.942 | W 0.994
